Our source for the screen value values is PMC12102759.

First the molecules themselves.
B1: KIAA1671 peptide 600-615 (Uncharacterized protein KIAA1671), 16-mer library wild type / MDM2 SWIB (MDM2 SWIB/MDM2 domain, residues 17-125) (parent)
chain 1: TPEDDRSFQTVWATVF
chain 2: SQIPASEQETLVRPKPLLLKLLKSVGAQKDTYTMKEVLFYLGQYIMTKRLYDEKQQHIVYCSNDLLGDLFGVPSFSVKEHRKIYTMIYRNLVVVNQQESSDSGTSVSEN
B2: PEX5 peptide 240-255 (Peroxisomal targeting signal 1 receptor), 16-mer library wild type / PEX14 Pex14 (PEX14 PEX14, residues 16-84) (parent)
chain 1: AEQWAAEFIQQQGTSD
chain 2: TPGSENVLPREPLIATAVKFLQNSRVRQSPLATRRAFLKKKGLTDEEIDMAFQQSGTAADEPSSLGPAT
B3: NYNRIN peptide 1030-1045 (Protein NYNRIN), 16-mer library wild type / NSP3 UBl1 (ORF1ab Nsp3a Ub1, residues 819-925) (parent)
chain 1: EAPSLSEEILRALSLH
chain 2: APTKVTFGDDTVIEVQGYKSVNITFELDERIDKVLNEKCSAYTVELGTEVNEFACVVADAVIKTLQPVSELLTPLGIDLDEWSMATYYLFDESGEFKLASHMYCSFY

The first assay covers variants of B1. The assay is described as follows: proteomic peptide phage display deep mutational scan (ProP-PD DMS): M13 P8 16-mer library selected against immobilised GST-tagged bait for four days (rounds), NGS of the eluted pools per day and pseudo-replica. Conditions: with MDM2 SWIB (MDM2 SWIB/MDM2 domain, residues 17-125); bait immobilised on MaxiSorp plates (10 µg), library pre-cleared on GST, 2 h binding at 4 °C, five washes; one round per day, days 1-4; value from days 2 and 3; keep out of graded; scale: average fractional NGS count over selection days 2 and 3.
For the variant chain 1 Q9E, the screen value is 8.49e-05. The same measure, in the same setting: then chain 1 Q9P, with 7.92e-05; and chain 1 V11F, with 0.000216. Still for that read-out and setting: to chain 1 V11H belongs 0.0015. On the same count and under the same terms, to chain 1 V11W belongs 0.00167; to chain 1 V11T, 0; to chain 1 V11N, 0. With chain 1 V11L, the screen value came out at 0.000339. On the same count and under the same terms, to chain 1 V11I belongs 0.00157. As for chain 1 V11Q, the screen value worked out at 0.00061. Same read-out and setting: then chain 1 V11A, with 0. On the same count and under the same terms, then chain 1 V11E, with 0; and chain 1 V11Y, with 0.000214. Consider chain 1 V11M, for which the screen value is 0.000226. As for chain 1 A13L, the screen value stood at 9.44e-05.

Take chain 1 A13V: the screen value turned out to be 4.31e-05.

For chain 1 A13T, the screen value is 0.00011. The same measure, in the same setting: then chain 1 A13H, with 0.000327; and chain 1 A13I, with 0.000104. On the same count and under the same terms, then chain 1 A13M, with 0.000146; and chain 1 A13Q, with 5.55e-05. On to chain 1 A13G, for which the screen value stood at 0. On the same count and under the same terms, to chain 1 A13N belongs 0.000173; to chain 1 A13W, 0.000391. Take chain 1 A13S: the screen value worked out at 0.000227. chain 1 A13R: the screen value was 5.94e-05. Same read-out and setting: then chain 1 A13D, with 1.83e-05; and chain 1 A13P, with 0; and chain 1 S7F, with 3.36e-05. On to chain 1 S7Q, for which the screen value is 0.000194.

Regarding chain 1 S7T, the screen value was found to be 6.52e-05.

Turning to chain 1 S7L, the screen value was determined as 0.000105. On the same count and under the same terms, then chain 1 S7N, with 5.84e-05. The same measure, in the same setting: then chain 1 S7P, with 2.82e-05; and chain 1 S7W, with 0.000517; and chain 1 S7K, with 6.18e-05.

As to chain 1 W12N, the screen value came out at 0. Same read-out and setting: then chain 1 W12K, with 9.9e-05; and chain 1 W12R, with 0; and chain 1 W12T, with 9.54e-05. On the same count and under the same terms, then chain 1 W12D, with 0; and chain 1 F16D, with 0; and chain 1 F16I, with 5.77e-05. On the same count and under the same terms, to chain 1 F16E belongs 0; to chain 1 F16A, 0; to chain 1 F16M, 4.28e-05.

Turning to chain 1 F16G, the screen value was determined as 0. The same measure, in the same setting: then chain 1 F16S, with 0.000197; and chain 1 F16W, with 1.6e-05; and chain 1 F16Y, with 0. Still for that read-out and setting: to chain 1 E3F belongs 1.83e-05; to chain 1 E3S, 0.00105. Same read-out and setting: to chain 1 E3N belongs 4.32e-05; to chain 1 E3A, 0.00018; to chain 1 E3V, 0.00284. Turning to chain 1 E3G, the screen value stood at 0.000104. The same measure, in the same setting: then chain 1 E3Y, with 0.00068; and chain 1 E3W, with 0.000218; and chain 1 E3Q, with 4.56e-05.

Regarding chain 1 E3I, the screen value was 0.000166. On the same count and under the same terms, to chain 1 E3P belongs 5.24e-05; to chain 1 E3K, 0.000111. With chain 1 E3R, the screen value was 0.000648. The same measure, in the same setting: to chain 1 E3H belongs 0.000765.

On to chain 1 E3T, for which the screen value turned out to be 0.000371. On the same count and under the same terms, to chain 1 E3L belongs 0.000185; to chain 1 D4Y, 2.12e-05. For chain 1 D4N, the screen value came to 1.9e-05.

For the variant chain 1 D4I, the screen value was found to be 8.68e-05. For the variant chain 1 D4G, the screen value was determined as 0.000914.

Regarding chain 1 D4T, the screen value worked out at 0.00033.

Take chain 1 D4P: the screen value came to 0.000107. On the same count and under the same terms, then chain 1 D4M, with 4.28e-05; and chain 1 D4A, with 0.00011. On the same count and under the same terms, to chain 1 D4V belongs 0.000129; to chain 1 D4Q, 0.000505.

On to chain 1 D4S, for which the screen value amounted to 0.0004. Same read-out and setting: then chain 1 D5H, with 6.55e-05; and chain 1 D5I, with 1.66e-05; and chain 1 D5Y, with 8.89e-05.

As to chain 1 D5L, the screen value was determined as 0.000477.

As to chain 1 D5W, the screen value amounted to 0.000664.

chain 1 D5Q: the screen value came out at 2.45e-05. Same read-out and setting: to chain 1 D5S belongs 0.00089; to chain 1 D5K, 1.66e-05; to chain 1 D5F, 3.53e-05.

chain 1 D5A: the screen value was 0.000323. On the same count and under the same terms, then chain 1 D5M, with 0.000189.

Take chain 1 D5V: the screen value was found to be 0.000143.

As for chain 1 D5P, the screen value is 0.000202. On the same count and under the same terms, then chain 1 D5T, with 0.000201. The same measure, in the same setting: then chain 1 D5G, with 0.00021; and chain 1 F8N, with 0.000113. The same measure, in the same setting: then chain 1 F8Y, with 1.9e-05. In the case of chain 1 F8W, the screen value is 0.000346. On the same count and under the same terms, to chain 1 F8M belongs 0.000128; to chain 1 F8A, 0.00012. Same read-out and setting: to chain 1 F8R belongs 0. Still for that read-out and setting: to chain 1 F8P belongs 7.93e-05; to chain 1 F8K, 0.

Variants of B2 are the subject of the next assay. The description is as above. The note with it: with PEX14 Pex14 (PEX14 PEX14, residues 16-84); bait immobilised on MaxiSorp plates (10 µg), library pre-cleared on GST, 2 h binding at 4 °C, five washes; one round per day, days 1-4; value from days 2 and 3; keep out of graded; scale: average fractional NGS count over selection days 2 and 3.
For the variant chain 1 G13R, the screen value came out at 0.

With chain 1 G13L, the screen value was found to be 0. As to chain 1 G13N, the screen value came to 0.000117. The same measure, in the same setting: then chain 1 A6H, with 0.000232; and chain 1 A6Q, with 0.000319. The same measure, in the same setting: to chain 1 A5G belongs 0. The same measure, in the same setting: then chain 1 A5V, with 0.000326; and chain 1 A5P, with 0.000159. Turning to chain 1 Q11D, the screen value amounted to 0. On the same count and under the same terms, to chain 1 Q11T belongs 0; to chain 1 A1L, 0.000125.

In the case of chain 1 A1G, the screen value was determined as 0. Turning to chain 1 A1F, the screen value is 0.00013. On to chain 1 W4R, for which the screen value was found to be 0.000107. Still for that read-out and setting: then chain 1 W4H, with 5.68e-05; and chain 1 W4L, with 9.31e-05; and chain 1 W4D, with 0.000272. On the same count and under the same terms, then chain 1 W4Q, with 0.

chain 1 W4N: the screen value is 0. As to chain 1 W4G, the screen value came to 6.63e-05.

As to chain 1 W4P, the screen value was found to be 0. With chain 1 Q3Y, the screen value amounted to 9.56e-05. The same measure, in the same setting: then chain 1 Q3E, with 0.000171.

In the case of chain 1 Q3F, the screen value was found to be 0. With chain 1 I9S, the screen value was 0.00015. Same read-out and setting: to chain 1 I9P belongs 0.000232; to chain 1 F8H, 0.000234; to chain 1 F8I, 9.8e-05. Same read-out and setting: to chain 1 F8K belongs 0; to chain 1 F8V, 0; to chain 1 F8D, 0.000118. The same measure, in the same setting: to chain 1 Q12T belongs 0.000175; to chain 1 Q12R, 0; to chain 1 Q12N, 0.000241. On to chain 1 T14Y, for which the screen value worked out at 0.000275. Consider chain 1 E7R, for which the screen value stood at 0.000213. Turning to chain 1 E7M, the screen value came to 0.000317.

For chain 1 E7S, the screen value was found to be 0.000242.

For chain 1 E7F, the screen value was found to be 0.00013. The same measure, in the same setting: then chain 1 E7N, with 0.000491; and chain 1 E7P, with 0.000118; and chain 1 E2Q, with 5.27e-05. The same measure, in the same setting: to chain 1 S15E belongs 0.000269.

As to chain 1 S15N, the screen value was found to be 0. For chain 1 S15F, the screen value was 9.56e-05.

As to chain 1 S15M, the screen value is 0.000166. The same measure, in the same setting: to chain 1 Q10S belongs 0.00027.

The variants in a further assay derive from B3.
Assay: not given
Conditions: with NSP3 UBl1 (ORF1ab Nsp3a Ub1, residues 819-925); bait immobilised on MaxiSorp plates (10 µg), library pre-cleared on GST, 2 h binding at 4 °C, five washes; one round per day, days 1-4; value from days 2 and 3; keep out of graded; scale: average fractional NGS count over selection days 2 and 3.
As for chain 1 L10D, the screen value was 0.

As for chain 1 E8N, the screen value was found to be 0.

With chain 1 E8P, the screen value was found to be 0.

Consider chain 1 L5N, for which the screen value came to 0.

Take chain 1 L5G: the screen value worked out at 0. With chain 1 L5H, the screen value amounted to 0. Same read-out and setting: then chain 1 A2S, with 0; and chain 1 L13M, with 0. The same measure, in the same setting: to chain 1 L13F belongs 0; to chain 1 L13V, 0; to chain 1 L13H, 0. The same measure, in the same setting: to chain 1 L13R belongs 0. On to chain 1 I9E, for which the screen value worked out at 0. On the same count and under the same terms, then chain 1 I9A, with 0. With chain 1 R11V, the screen value was 0. Same read-out and setting: then chain 1 R11P, with 0. The same measure, in the same setting: then chain 1 R11L, with 0; and chain 1 S4V, with 0; and chain 1 S4M, with 0. On the same count and under the same terms, then chain 1 L15W, with 0.
